T1: recombinant human activated Factor VII (FVIIa) (human, UniProt P08709 61-212; P08709 213-466, ten glutamate residues of the Gla domain may be gamma-carboxylated)
T1 construct: chains tethered by a disulfide bond; also called Factor VIIa; rFVIIa
T1 sequence 1: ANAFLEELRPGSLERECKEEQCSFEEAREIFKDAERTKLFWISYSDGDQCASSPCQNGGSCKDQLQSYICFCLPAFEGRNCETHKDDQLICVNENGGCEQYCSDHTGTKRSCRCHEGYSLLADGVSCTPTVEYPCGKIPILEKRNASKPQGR
T1 sequence 2: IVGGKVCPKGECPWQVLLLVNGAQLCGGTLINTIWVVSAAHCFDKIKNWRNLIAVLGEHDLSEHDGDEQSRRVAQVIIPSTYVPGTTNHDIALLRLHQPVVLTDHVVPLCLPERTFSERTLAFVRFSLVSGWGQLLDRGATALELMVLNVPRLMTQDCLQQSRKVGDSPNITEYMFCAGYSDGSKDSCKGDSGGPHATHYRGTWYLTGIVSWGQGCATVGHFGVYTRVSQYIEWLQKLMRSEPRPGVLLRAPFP

B1: VH SEQ ID NO 562 / VL SEQ ID NO 422 (antibody, IgG4, V domains shown)
VH: QVQLQESGPGLVKPSDTLSLTCAVSGYSISSDSAWSWIRQPPGKGLEWIGYIQYSGSTNYNPSLKSRVTMSRDTSKNQFSLKLSSVTALDTAVYYCARSVNYYGNSFAVGPWGQGTLVTVSS
VL: EIVLTQSPATLSLSPGERATLSCRASQGVSDYLAWYQQKPGQAPRLLIKYASQPATGIPARFSGSGSGTDFTLTISSLEPEDFAVYYCQQGHSFPLTFGQGTKLEIK
notes: humanized 11F2; IgG4 S228P/kappa
B2: VH SEQ ID NO 562 / VL SEQ ID NO 430 (antibody, IgG4, V domains shown)
VH: QVQLQESGPGLVKPSDTLSLTCAVSGYSISSDSAWSWIRQPPGKGLEWIGYIQYSGSTNYNPSLKSRVTMSRDTSKNQFSLKLSSVTALDTAVYYCARSVNYYGNSFAVGPWGQGTLVTVSS
VL: EIVLTQSPATLSLSPGERATLSCRASQGVSDYLAWYQQKPGQAPRLLIKYASQPATGIPARFSGSGSGTDFTLTISSLEPEDFGVYYCQNGHSFPLTFGQGTKLEIK
notes: as for B1
B3: VH SEQ ID NO 562 / VL SEQ ID NO 438 (antibody, IgG4, V domains shown)
VH: QVQLQESGPGLVKPSDTLSLTCAVSGYSISSDSAWSWIRQPPGKGLEWIGYIQYSGSTNYNPSLKSRVTMSRDTSKNQFSLKLSSVTALDTAVYYCARSVNYYGNSFAVGPWGQGTLVTVSS
VL: EIVLTQSPATLSLSPGERATLSCRASQGVSDYLAWYQQKPGQAPRLLIKYASQPATGIPARFSGSGSGTDFTLTISSLEPEDVAVYYCQNGHSFPLTFGQGTKLEIK
notes: as for B1
B4: VH SEQ ID NO 562 / VL SEQ ID NO 454 (antibody, IgG4, V domains shown)
VH: QVQLQESGPGLVKPSDTLSLTCAVSGYSISSDSAWSWIRQPPGKGLEWIGYIQYSGSTNYNPSLKSRVTMSRDTSKNQFSLKLSSVTALDTAVYYCARSVNYYGNSFAVGPWGQGTLVTVSS
VL: EIVLTQSPATLSLSPGERATLSCRASQGVSDYLHWYQQKPGEAPRLLIKYASQPATGIPARFSGSGSGTDFTLTISSLEPEDFAVYYCQNGHSFPLTFGQGTKLEIK
notes: as for B1
B5: VH SEQ ID NO 562 / VL SEQ ID NO 462 (antibody, IgG4, V domains shown)
VH: QVQLQESGPGLVKPSDTLSLTCAVSGYSISSDSAWSWIRQPPGKGLEWIGYIQYSGSTNYNPSLKSRVTMSRDTSKNQFSLKLSSVTALDTAVYYCARSVNYYGNSFAVGPWGQGTLVTVSS
VL: EIVLTQSPATLSLSPGERATLSCRASQGVSDYLHWYQQKPGQAPRLLIKYASQPATGIPARFSGSGSGTDFTLTISSLEPEDFAVYYCQNGHSFPLTFGAGTKLEIK
notes: as for B1
B6: VH SEQ ID NO 562 / VL SEQ ID NO 470 (antibody, IgG4, V domains shown)
VH: QVQLQESGPGLVKPSDTLSLTCAVSGYSISSDSAWSWIRQPPGKGLEWIGYIQYSGSTNYNPSLKSRVTMSRDTSKNQFSLKLSSVTALDTAVYYCARSVNYYGNSFAVGPWGQGTLVTVSS
VL: EIVLTQSPATLSLSPGERATLSCRASQGVSDYLHWYQQKPGQAPRLLIKYASQPATGIPARFSGSGSGTDFTLTISSLEPEDFAVYYCQNGHSFPLTFGQGTKLEIK
notes: as for B1
B7: VH SEQ ID NO 562 / VL SEQ ID NO 478 (antibody, IgG4, V domains shown)
VH: QVQLQESGPGLVKPSDTLSLTCAVSGYSISSDSAWSWIRQPPGKGLEWIGYIQYSGSTNYNPSLKSRVTMSRDTSKNQFSLKLSSVTALDTAVYYCARSVNYYGNSFAVGPWGQGTLVTVSS
VL: EIVLTQSPATLSLSPGERATLSCRASQGVSDYLHWYQQKPGQAPRLLIKYASQPATGIPARFSGSGSGTDFTLTISSLEPEDFAVYYCQQGHSFPLTFGQGTKLEIK
notes: as for B1
B8: VH SEQ ID NO 562 / VL SEQ ID NO 486 (antibody, IgG4, V domains shown)
VH: QVQLQESGPGLVKPSDTLSLTCAVSGYSISSDSAWSWIRQPPGKGLEWIGYIQYSGSTNYNPSLKSRVTMSRDTSKNQFSLKLSSVTALDTAVYYCARSVNYYGNSFAVGPWGQGTLVTVSS
VL: EIVLTQSPATLSLSPGERATLSCRASQGVSDYLHWYQQKPGQAPRLLIKYASQPATGIPARFSGSGSGTDFTLTISSLEPEDFGVYYCQNGHSFPLTFGQGTKLEIK
notes: as for B1
B9: VH SEQ ID NO 562 / VL SEQ ID NO 494 (antibody, IgG4, V domains shown)
VH: QVQLQESGPGLVKPSDTLSLTCAVSGYSISSDSAWSWIRQPPGKGLEWIGYIQYSGSTNYNPSLKSRVTMSRDTSKNQFSLKLSSVTALDTAVYYCARSVNYYGNSFAVGPWGQGTLVTVSS
VL: EIVLTQSPATLSLSPGERATLSCRASQGVSDYLHWYQQKPGQAPRLLIKYASQPATGIPARFSGSGSGTDFTLTISSLEPEDVAVYYCQNGHSFPLTFGQGTKLEIK
notes: as for B1
B10: VH SEQ ID NO 562 / VL SEQ ID NO 502 (antibody, IgG4, V domains shown)
VH: QVQLQESGPGLVKPSDTLSLTCAVSGYSISSDSAWSWIRQPPGKGLEWIGYIQYSGSTNYNPSLKSRVTMSRDTSKNQFSLKLSSVTALDTAVYYCARSVNYYGNSFAVGPWGQGTLVTVSS
VL: EIVLTQSPATLSLSPGERATLSCRASQGVSDYLHWYQQKPGQAPRLLIKYTSQPATGIPARFSGSGSGTDFTLTISSLEPEDFAVYYCQNGHSFPLTFGQGTKLEIK
notes: as for B1
B11: VH SEQ ID NO 570 / VL SEQ ID NO 310 (antibody, IgG4, V domains shown)
VH: QVQLQESGPGLVKPSDTLSLTCAVSGYSISSDSAWSWIRQPPGKGLEWIGYIQYSGSTNYNPSLKSRVTMSRDTSKNQFSLKLSSVTAADTAVYYCARSVNYYGNSFAVGPWGQGTLVTVSS
VL: EIVLTQSPATLSLSPGERATLSCRASQGISDYLAWYQQKPGQAPRLLIKYASQPATGIPARFSGSGSGTDFTLTISSLEPEDFAVYYCQNGHSFPLTFGQGTKLEIK
notes: as for B1
B12: VH SEQ ID NO 570 / VL SEQ ID NO 318 (antibody, IgG4, V domains shown)
VH: QVQLQESGPGLVKPSDTLSLTCAVSGYSISSDSAWSWIRQPPGKGLEWIGYIQYSGSTNYNPSLKSRVTMSRDTSKNQFSLKLSSVTAADTAVYYCARSVNYYGNSFAVGPWGQGTLVTVSS
VL: EIVLTQSPATLSLSPGERATLSCRASQGISDYLHWYQQKPGEAPRLLIKYTSQPATGIPARFSGSGSGTDFTLTISSLEPEDFAVYYCQNGHSFPLTFGQGTKLEIK
notes: as for B1
B13: VH SEQ ID NO 570 / VL SEQ ID NO 326 (antibody, IgG4, V domains shown)
VH: QVQLQESGPGLVKPSDTLSLTCAVSGYSISSDSAWSWIRQPPGKGLEWIGYIQYSGSTNYNPSLKSRVTMSRDTSKNQFSLKLSSVTAADTAVYYCARSVNYYGNSFAVGPWGQGTLVTVSS
VL: EIVLTQSPATLSLSPGERATLSCRASQGISDYLHWYQQKPGEAPRLLIKYTSQPATGIPARFSGSGSGTDFTLTISSLEPEDFGVYYCQNGHSFPLTFGAGTKLELK
notes: as for B1
B14: VH SEQ ID NO 570 / VL SEQ ID NO 334 (antibody, IgG4, V domains shown)
VH: QVQLQESGPGLVKPSDTLSLTCAVSGYSISSDSAWSWIRQPPGKGLEWIGYIQYSGSTNYNPSLKSRVTMSRDTSKNQFSLKLSSVTAADTAVYYCARSVNYYGNSFAVGPWGQGTLVTVSS
VL: EIVLTQSPATLSLSPGERATLSCRASQGISDYLHWYQQKPGQAPRLLIKYASQPATGIPARFSGSGSGTDFTLTISSLEPEDFAVYYCQNGHSFPLTFGQGTKLEIK
notes: as for B1
B15: VH SEQ ID NO 570 / VL SEQ ID NO 342 (antibody, IgG4, V domains shown)
VH: QVQLQESGPGLVKPSDTLSLTCAVSGYSISSDSAWSWIRQPPGKGLEWIGYIQYSGSTNYNPSLKSRVTMSRDTSKNQFSLKLSSVTAADTAVYYCARSVNYYGNSFAVGPWGQGTLVTVSS
VL: EIVLTQSPATLSLSPGERATLSCRASQGISDYLHWYQQKPGQAPRLLIKYTSQPATGIPARFSGSGSGRDFTLTISSLEPEDFAVYYCQNGHSFPLTFGAGTKLELK
notes: as for B1
B16: VH SEQ ID NO 570 / VL SEQ ID NO 350 (antibody, IgG4, V domains shown)
VH: QVQLQESGPGLVKPSDTLSLTCAVSGYSISSDSAWSWIRQPPGKGLEWIGYIQYSGSTNYNPSLKSRVTMSRDTSKNQFSLKLSSVTAADTAVYYCARSVNYYGNSFAVGPWGQGTLVTVSS
VL: EIVLTQSPATLSLSPGERATLSCRASQGISDYLHWYQQKPGQAPRLLIKYTSQPATGIPARFSGSGSGTDFTLTISSLEPEDFAVYYCQNGHSFPLTFGAGTKLELK
notes: as for B1

biological target: T1, recombinant human activated Factor VII …; assay: BLI (Fortebio)

First: B1
Second: B2
The Kd of the first is 2.3-fold higher: 18 nM for the first, 7.9 nM for the second.

Going from B3 to B4, the Kd falls from 11 nM to 1.4 nM (7.9-fold). The second binds more tightly here.

B5 and B6 are the same in Kd: 1.4 nM for the first, 1.4 nM for the second.

First: B7
Second: B8
The Kd of the first is 2-fold higher: 2.6 nM for the first, 1.3 nM for the second. The second binds more tightly here.

B9 and B10 are within 1.5-fold of each other in Kd: 1.6 nM for the first, 1.1 nM for the second.

First: B11
Second: B12
The Kd of the first is 16-fold higher: 13 nM for the first, 0.83 nM for the second.

First: B13
Second: B14
The Kd of the first is 1.7-fold lower: 0.55 nM for the first, 0.92 nM for the second. The first binds more tightly here.

Going from B15 to B16, the Kd falls from 1.5 nM to 1 nM (1.5-fold).
